Results as given in patent US20080286312A1.

Experiments:
[1] = molecular target: H-2K^k (mouse) (UniProt P04223); experiment: flow cytometry with QIFIKIT, MD45 transfectant 427-24
[2] = molecular target: H-2K^k (mouse) (UniProt P04223); experiment: flow cytometry with QIFIKIT, MD45 transfectant 425-44
[3] = molecular target: H-2K^k (mouse) (UniProt P04223); experiment: flow cytometry with QIFIKIT, parental MD45 cells
[4] = molecular target: K^b/OVA257-264 complex on Y317-2 cells (H-2K^b with OVA257-264 linked to human membranal β2m) (mouse; chicken; human); experiment: flow cytometry, RMA-S transfectant Y317-2, 37° C.
[5] = molecular target: H-2K^k (mouse) (UniProt P04223); experiment: derived from QIFIKIT flow cytometry with Fab13.4.1 and AF3-12.1 on 427-24 cells
[6] = molecular target: H-2K^b (mouse) (UniProt P01901); experiment: derived from MFI of 25D-1.16 and anti-H-2K^b staining of Y317-2 cells at 37° C.
[7] = molecular target: Ha255-262 dcβ2m (Ha255-262 - linker - human β2m - bridge - mouse CD3 ζ) (influenza virus; human; mouse) (UniProt P61769); experiment: flow cytometry with QIFIKIT, MD45 transfectant 427-24
[8] = molecular target: NP50-57 dcβ2m (NP50-57 - linker - human β2m - bridge - mouse CD3 ζ) (influenza virus; human; mouse) (UniProt P61769); experiment: flow cytometry with QIFIKIT, MD45 transfectant 425-44
[9] = molecular target: hβ2m-CD40 (human β2m fused through a bridge to the mouse CD40 transmembrane and cytoplasmic region) (human; mouse) (UniProt P61769); experiment: cell-based or functional assay
[10] = molecular target: H-2K^d (mouse) (UniProt P01902); experiment: cell-based or functional assay
[11] = molecular target: H-2K^b (mouse) (UniProt P01901); experiment: flow cytometry, RMA-S transfectant Y317-2, 37° C.

UniProt P04223, sequence (P04223 22-369 limits assumed): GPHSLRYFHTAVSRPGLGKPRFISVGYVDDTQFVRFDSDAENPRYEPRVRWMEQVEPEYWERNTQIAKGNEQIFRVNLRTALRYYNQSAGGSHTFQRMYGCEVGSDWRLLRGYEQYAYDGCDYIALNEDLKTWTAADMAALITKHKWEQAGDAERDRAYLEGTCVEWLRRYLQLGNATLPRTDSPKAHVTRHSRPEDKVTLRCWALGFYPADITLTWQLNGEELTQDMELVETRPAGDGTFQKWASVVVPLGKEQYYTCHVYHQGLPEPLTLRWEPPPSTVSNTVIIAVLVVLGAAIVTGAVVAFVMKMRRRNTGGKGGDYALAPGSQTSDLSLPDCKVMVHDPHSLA
UniProt P01901, sequence (P01901 22-369 limits assumed): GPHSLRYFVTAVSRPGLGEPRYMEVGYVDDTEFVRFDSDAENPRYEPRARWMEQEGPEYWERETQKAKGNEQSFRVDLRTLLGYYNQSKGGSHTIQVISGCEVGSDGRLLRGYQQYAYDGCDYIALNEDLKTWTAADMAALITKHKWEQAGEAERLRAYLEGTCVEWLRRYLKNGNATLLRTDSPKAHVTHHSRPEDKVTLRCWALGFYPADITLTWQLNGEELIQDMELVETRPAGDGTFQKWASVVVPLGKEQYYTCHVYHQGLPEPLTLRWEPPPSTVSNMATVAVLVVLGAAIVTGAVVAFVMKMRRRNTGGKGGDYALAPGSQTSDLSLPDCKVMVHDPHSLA
UniProt P01902, sequence (P01902 22-305 limits assumed): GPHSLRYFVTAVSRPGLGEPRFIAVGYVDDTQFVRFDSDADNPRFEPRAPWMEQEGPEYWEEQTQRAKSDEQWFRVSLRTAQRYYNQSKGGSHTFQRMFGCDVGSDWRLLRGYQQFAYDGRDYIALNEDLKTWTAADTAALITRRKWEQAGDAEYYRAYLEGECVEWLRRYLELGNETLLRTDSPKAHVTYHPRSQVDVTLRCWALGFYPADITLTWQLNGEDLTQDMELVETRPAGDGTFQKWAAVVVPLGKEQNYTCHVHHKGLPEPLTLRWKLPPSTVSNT

## AF3-12.1 anti-K^k mAb (antibody)
[1]
  quantity of surface antigen (QIFIKIT): 28600
[2]
  quantity of surface antigen (QIFIKIT): 37600
[3]
  quantity of surface antigen (QIFIKIT): 10900

## 25-D1.16 mAb specific to the complex H-2K^b/OVA257-264 (antibody)
[4]
  mean fluorescence intensity: 69.7 MFI

## Ha255-262 dcβ2m (Ha255-262 - linker - human β2m - bridge - mouse CD3 ζ) (from UniProt P61769 21-119; P24161 31-164)
[5]
  occupation of surface H-2K^k molecules: 20%

## OVA257-264 dcβ2m with human β2m and H-2K^b anchor (from UniProt P61769 21-119)
[6]
  H-2K^b occupancy: 57%

## BM-63 anti-human β2m mAb (antibody)
[7]
  quantity of surface antigen (QIFIKIT): 173000
[8]
  quantity of surface antigen (QIFIKIT): 467000
[9]
  decrease of total cellular IκBα (immunoblot) in A20 transfectant: 39%

## hβ2m-CD40 (human β2m fused through a bridge to the mouse CD40 transmembrane and cytoplasmic region) (from UniProt P61769 21-119; P27512 194-289)
[10]
  reduction of total cellular IκBα (immunoblot) in A20 transfectant after incubation with an anti-H-2 K^d mAb: 71%

## 20-8-4 anti-H-2K^b mAb (antibody)
[11]
  mean fluorescence intensity: 122 MFI
